Laboratory results published in patent US20170015738A1 (H LUNDBECK A S, published 2017).

Key:
[1] = molecular target: T1, tau antigens from human AD brain, S1(p) fraction (human, UniProt P10636 2-758, phosphorylated; sites not listed for this fraction); experiment: fluid phase MSD ELISA: inhibition of tau antigen capture
T1 construct: Brain-derived; isoform mix; also called AD-S1(p); AD s1(p)
Procedure: B: The samples were incubated on MSD plates coated with AD-P3 (1 μg/ml) for 2 hours followed by wash and detection of captured Tau antigens using sulfo tagged anti-total TauG antibodies.

[2] = molecular target: T2, pathological hyperphosphorylated tau from human Alzheimer's disease brain, sarkosyl-insoluble P3 fraction (human, UniProt P10636 2-758, hyperphosphorylated; phosphoserine at 396 (other sites not listed)); experiment: MSD ELISA on immobilised P3 tau; ratio of binding to AD over healthy control at saturation
T2 construct: Brain-derived mixture of tau isoforms (bands at 54, 64, 69 and 74 kDa); also called AD-P3; AD P3
T2 sequence (P10636 other isoform, or with tags, fused parts or gaps limits assumed): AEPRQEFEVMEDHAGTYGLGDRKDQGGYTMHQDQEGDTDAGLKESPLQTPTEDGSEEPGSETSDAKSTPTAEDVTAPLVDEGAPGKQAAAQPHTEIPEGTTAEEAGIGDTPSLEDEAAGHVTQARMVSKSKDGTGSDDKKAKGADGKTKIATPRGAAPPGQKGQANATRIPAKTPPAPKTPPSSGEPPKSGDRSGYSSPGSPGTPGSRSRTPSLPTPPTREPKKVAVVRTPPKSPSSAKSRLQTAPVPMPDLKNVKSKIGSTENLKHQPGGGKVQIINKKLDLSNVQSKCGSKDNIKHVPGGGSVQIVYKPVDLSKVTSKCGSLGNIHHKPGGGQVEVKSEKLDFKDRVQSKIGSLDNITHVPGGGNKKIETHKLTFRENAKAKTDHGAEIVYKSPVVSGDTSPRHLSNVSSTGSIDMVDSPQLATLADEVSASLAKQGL

T1 sequence (P10636 other isoform, or with tags, fused parts or gaps limits assumed): as above

Binder | IC50 [1] [nM] | AD/ctrl [2] [fold]
Antibody D1.2 (antibody, mouse IgG2b, kappa, V domains shown, Mouse monoclonal; also called mD1.2; mouse D1.2) VH: QVQLQQSGAELVRPGASVTLSCKASGNTFTDYEIHWVKQTPVHGLEWIGAIDPETGNTAYNQKFKGKARLTADKSSSTAYMELRSLTSEDSAVYYCTRSRGFDYWGQGTTLTVSS VL: DVMMTQTPLSLPVSLGDQASISCRSSQSLVHSNGNTYLHWHLQKPGQSPKFLIYKVSNRFSGVPDRFSGSGSGTDFTLKISRVEAEDLGVYFCSQSTHVPFTFGSGTKLEIKR | 503 | 
IPN002 (antibody, V domains shown) VH: EVHLVESGGALVKPGGSLKLSCAASGFSFSKYGMSWVRQTPDKRLEWVATISSSGSRTYYPDSVKGQFTISRDNAKNTLYLQMSSLKSEDTAMYYCSISWDGAMDYWGQGTSVTVSS VL: DVLMTQTPLSLPVSLGDQASISCKSSQSIVHSNGNTYLEWYLQKPGQSPKLLVYKVSNRFSGVPDRFSGSGSGTDFTLKISRVEAEDLGTYYCFQGSLVPWAFGGGTKLEIK |  | 3
Antibody C10-2 (murine) (antibody, mouse IgG1, kappa, V domains shown, Mouse monoclonal from hybridoma; also called mC10-2; mouse C10-2) VH: QVQLQQSDAELVKPGASVKISCKASGYTFTDRTIHWVKQRPEQGLEWIGYIYPGDGSTKYNENFKGKATLTADKSSSTAYMQLNSLTSEDSAVYFCARRGAMDYWGQGTSVTVSS VL: DVQMIQSPSSLSASLGDIVTMTCQASQGTSINLNWFQQKPGKAPKLLIYGASNLEDGVPSRFSGSRYGTDFTLTISSLEDEDMATYFCLQHTYLPFTFGSGTKLEIKR | 11 | 
